Measured values: paper PMC4358367, “Structural basis of diverse membrane target recognitions by ankyrins” (eLife, 2014)
Where a chain is given by its changes, count along the chain named. In names and notes the source's numbering stands. Read-outs that look alike come from different tables or passages of the source. Values belong to the binder of their own block, whether it stands above or below them.

What was measured:
[1] = biological target: T1, Nav1.2 ABD C-terminal half (UniProt Q99250)
T1 chain: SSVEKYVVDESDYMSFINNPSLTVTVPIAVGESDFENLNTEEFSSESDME

[2] = biological target: T2, AnkR_repeats (24 ANK repeats of ankyrin-R, residues 42–853) (mouse, UniProt Q02357-6 42-853); assay: ITC; VP-ITC at 25°C; 50 mM Tris pH 7.5, 100 mM NaCl, 1 mM EDTA, 1 mM DTT; binding partner (AS, Nav1.2 ABD proteins, neurofascin ABD; 200–300 µM) in the syringe, ANK repeats (20–30 µM) in the cell; one-site binding model; details: both partners purified
T2 construct: ankyrin-R (AnkR), mouse, ANK repeats, residues 42-853, PCR amplified from a mouse muscle cDNA library; The thioredoxin-His6 tag was removed with HRV 3C protease 'when needed'; also called AnkR ANK repeats; source: E. coli BL21 (DE3), purified
T2 sequence (looked up): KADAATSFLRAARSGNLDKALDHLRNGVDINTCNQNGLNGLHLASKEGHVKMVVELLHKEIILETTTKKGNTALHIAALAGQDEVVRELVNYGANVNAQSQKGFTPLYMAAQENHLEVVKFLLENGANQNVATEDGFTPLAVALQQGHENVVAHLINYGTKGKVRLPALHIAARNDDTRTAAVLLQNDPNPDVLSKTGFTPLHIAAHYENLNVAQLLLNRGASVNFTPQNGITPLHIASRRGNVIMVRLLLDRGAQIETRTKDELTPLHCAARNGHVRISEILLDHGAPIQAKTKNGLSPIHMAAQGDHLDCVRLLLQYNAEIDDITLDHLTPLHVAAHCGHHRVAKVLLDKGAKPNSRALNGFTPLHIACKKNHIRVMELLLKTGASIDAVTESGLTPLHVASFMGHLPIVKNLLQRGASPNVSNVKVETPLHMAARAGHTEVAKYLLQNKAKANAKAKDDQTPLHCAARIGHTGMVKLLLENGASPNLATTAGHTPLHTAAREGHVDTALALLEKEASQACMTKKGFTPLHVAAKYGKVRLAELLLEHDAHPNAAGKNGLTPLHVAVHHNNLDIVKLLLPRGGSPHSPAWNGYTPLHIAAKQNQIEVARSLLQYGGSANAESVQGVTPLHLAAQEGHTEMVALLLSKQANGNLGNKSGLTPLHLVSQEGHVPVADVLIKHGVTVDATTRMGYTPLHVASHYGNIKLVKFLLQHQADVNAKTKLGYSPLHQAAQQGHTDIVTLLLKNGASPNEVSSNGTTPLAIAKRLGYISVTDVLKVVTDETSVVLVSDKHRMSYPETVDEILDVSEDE

[3] = biological target: T3, AnkG_repeats (24 ANK repeats of rat 190 kDa ankyrin-G, residues 38–855) (rat, UniProt O70511 38-855); assay: as above; details: both partners purified
T3 construct: ankyrin-G (AnkG), rat, 190 kDa isoform used as template, ANK repeats, residues 38-855; also called AnkG ANK repeats; wild-type ANK repeats; source: E. coli BL21 (DE3), purified
T3 sequence (looked up): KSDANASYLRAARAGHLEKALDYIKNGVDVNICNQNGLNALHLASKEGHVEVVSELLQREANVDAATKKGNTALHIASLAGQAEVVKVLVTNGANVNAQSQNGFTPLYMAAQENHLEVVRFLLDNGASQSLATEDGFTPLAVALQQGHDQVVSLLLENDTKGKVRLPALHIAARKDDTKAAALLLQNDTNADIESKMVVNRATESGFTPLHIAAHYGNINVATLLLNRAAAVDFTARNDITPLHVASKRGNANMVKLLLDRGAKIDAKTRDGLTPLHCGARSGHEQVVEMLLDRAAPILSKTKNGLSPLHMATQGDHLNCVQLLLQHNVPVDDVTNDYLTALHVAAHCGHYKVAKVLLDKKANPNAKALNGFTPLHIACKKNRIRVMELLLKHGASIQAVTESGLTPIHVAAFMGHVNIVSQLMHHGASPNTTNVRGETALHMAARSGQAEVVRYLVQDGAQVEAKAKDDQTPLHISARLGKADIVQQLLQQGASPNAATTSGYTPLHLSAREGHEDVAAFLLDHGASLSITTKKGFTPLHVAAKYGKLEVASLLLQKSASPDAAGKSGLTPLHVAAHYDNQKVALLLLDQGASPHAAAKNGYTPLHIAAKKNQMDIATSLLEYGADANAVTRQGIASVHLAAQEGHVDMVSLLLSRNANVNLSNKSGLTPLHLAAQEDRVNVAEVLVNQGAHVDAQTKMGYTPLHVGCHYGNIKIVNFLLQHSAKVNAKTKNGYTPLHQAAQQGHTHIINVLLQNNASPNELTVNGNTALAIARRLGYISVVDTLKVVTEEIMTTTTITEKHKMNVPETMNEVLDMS

[4] = biological target: T4, AnkB_repeats_R1–9 (first nine ANK repeats of AnkB, residues 28–318, followed by the capping sequence 814–822) (human, UniProt Q01484 28-318; Q01484 814-822); assay: ITC
T4 chain: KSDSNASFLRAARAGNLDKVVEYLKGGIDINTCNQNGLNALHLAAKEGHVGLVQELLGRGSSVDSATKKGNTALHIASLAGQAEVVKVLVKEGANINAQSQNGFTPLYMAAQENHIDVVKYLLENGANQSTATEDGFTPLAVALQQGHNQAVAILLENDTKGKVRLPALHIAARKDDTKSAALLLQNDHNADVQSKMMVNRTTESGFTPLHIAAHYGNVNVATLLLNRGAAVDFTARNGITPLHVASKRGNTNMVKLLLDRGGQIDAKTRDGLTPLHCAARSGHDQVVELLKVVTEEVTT

AnkB R1-14 = biological target: T5, AnkB R1-14 (Homo sapiens); assay: ITC
T5 chain: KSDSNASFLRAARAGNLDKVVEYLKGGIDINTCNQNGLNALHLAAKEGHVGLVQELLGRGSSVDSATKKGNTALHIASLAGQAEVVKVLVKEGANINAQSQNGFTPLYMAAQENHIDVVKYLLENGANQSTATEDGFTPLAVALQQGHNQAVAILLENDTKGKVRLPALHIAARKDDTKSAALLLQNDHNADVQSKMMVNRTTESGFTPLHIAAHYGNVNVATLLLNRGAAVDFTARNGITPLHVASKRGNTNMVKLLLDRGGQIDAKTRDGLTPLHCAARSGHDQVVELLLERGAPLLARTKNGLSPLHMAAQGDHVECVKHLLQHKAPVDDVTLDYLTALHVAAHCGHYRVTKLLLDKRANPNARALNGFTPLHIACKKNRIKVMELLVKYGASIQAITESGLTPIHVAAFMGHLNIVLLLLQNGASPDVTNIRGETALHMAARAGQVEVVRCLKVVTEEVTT

[5] = biological target: T6, AnkG ANK repeats R1–6 (truncation of AnkG_repeats with C-terminal capping sequence) (rat | human); assay: ITC
T6 chain: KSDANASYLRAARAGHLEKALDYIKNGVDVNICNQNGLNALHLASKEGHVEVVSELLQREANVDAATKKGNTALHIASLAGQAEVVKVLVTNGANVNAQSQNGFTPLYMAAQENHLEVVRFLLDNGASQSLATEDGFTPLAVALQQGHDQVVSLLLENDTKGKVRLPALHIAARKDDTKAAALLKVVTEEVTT

[6] = biological target: T7, AnkG_repeats (24 ANK repeats of rat 190 kDa ankyrin-G, residues 38–855) (rat, UniProt O70511 38-855); assay: ITC
T7 chain: T3 sequence (looked up)

[7] = biological target: T6, AnkG ANK repeats R1–6 (truncation of …); assay: ITC
[8] = biological target: T7, AnkG_repeats (24 ANK repeats of rat 190 …); assay: ITC
[9] = biological target: T7, AnkG_repeats (24 ANK repeats of rat 190 …); assay: ITC
[10] = biological target: T8, Nav1.2_ABD (ankyrin binding domain of Nav1.2, residues 1035–1129); assay: ITC; details: chain shown with the change
T8 chain: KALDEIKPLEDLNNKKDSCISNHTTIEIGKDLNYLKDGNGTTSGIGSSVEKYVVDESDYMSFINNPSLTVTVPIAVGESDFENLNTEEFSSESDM

[11] = biological target: T8, Nav1.2_ABD (ankyrin binding domain of …); assay: ITC; details: chain shown with the change
[12] = biological target: T9, Nfasc_ABD (28-residue fragment of the neurofascin cytoplasmic tail, residues 1187–1214); assay: ITC; details: chain shown with the change;; parent: 0.21 ± 0.02
T9 chain: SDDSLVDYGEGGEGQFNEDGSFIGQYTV

Binder: MMNEDA [AnkB repeats R1-6]
Kd [1]: ~2300 nM

B2: Nav1.2 ABD-N (N-terminal 68-residue fragment of loop 2, residues 1035–1102) (domain or fragment)
chain: KALDEIKPLEDLNNKKDSCISNHTTIEIGKDLNYLKDGNGTTSGIGSSVEKYVVDESDYMSFINNPSL
Kd [3]: ~8000 nM

B3: Nav1.2_ABD (ankyrin binding domain of Nav1.2, residues 1035–1129) (domain or fragment)
chain: T8 chain
Kd [4]: 3500 nM | Kd (AnkB R1-14): 290 nM | Kd [5]: 2300 nM

B4: E1112K-Nav1.2 (ABD with the charge reversal mutation E1112K) (domain or fragment)
chain: T8 chain with E78K
Kd [6]: > 50000 nM

B5: Nfasc entire cytoplasmic tail (residues 1132–1240) (domain or fragment)
chain: KRSRGGKYPVREKKDVPLGPEDPKEEDGSFDYSDEDNKPLQGSQTSLDGTIKQQESDDSLVDYGEGGEGQFNEDGSFIGQYTVKKDKEETEGNESSEATSPVNAIYSLA
Kd [9]: 580 nM

Now from value to binder:

Kd [2]: ~1000 nM
B1: AnkR entire C-terminal regulatory domain (residues 1529–1907) (domain or fragment, mouse, UniProt Q02357-6 1529-1907, looked up)
chain: RQSRNLKPERRHGDREYSLSPSQVNGYSSLQDELLSPASLQYALPSPLCADQYWNEVTVIDAIPLAATEHDTMLEMSDMQVWSAGLTPSLVTAEDSSLECSKAEDSDAIPEWKLEGAHSEDTQGPELGSQDLVEDDTVDSDATNGLADLLGQEEGQRSEKKRQEVSGTEQDTETEVSLVSGQQRVHARITDSPSVRQVLDRSQARTLDWDKQGSTAVHPQEATQSSWQEEVTQGPHSFQRRITTIQGPEPGALQEYEQVLVSTREHVQRGPPETGSPKAGKEPSLWAPESAFSQEVQGDELQNIPGEQVTEEQFTDEQGNIVTKKIIRKVVRQVDSSGAIDTQQHEEVELRGSGLQPDLIEGRKGAQIVKRASLKRGKQ
notes: also called full length AnkR C-terminal domain; C-terminal tail of AnkR; source: E. coli BL21 (DE3), purified

Kd [7]: 2300 nM | Kd [8]: 2700 nM
Binder: TVTVPIAVGESDFENLNTEEFSSESDM (domain or fragment) [Nav1.2_ABD-C (27-residue motif of loop 2, residues 1103–1129)]

Kd [10]: 220 nM | Kd [11]: 220 nM | Kd [12]: 2800 nM
B6: AnkG_repeats (24 ANK repeats of rat 190 kDa ankyrin-G, residues 38–855), O70511 I267Q; L300Q (protein)
chain: T3 sequence (looked up) with I240Q, L273Q
